Experimental data published in patent EP0323740A2, “Linear analogs of atrial natriuretic peptides” (CALIFORNIA BIOTECHNOLOGY, INC., priority 1987, dated 1989).

Target: T1, ANP-receptor (Bos taurus, UniProt P10730)
T1 construct: endogenous in cells; host or cells: cultured BASM cells
T1 sequence (P10730 42-537): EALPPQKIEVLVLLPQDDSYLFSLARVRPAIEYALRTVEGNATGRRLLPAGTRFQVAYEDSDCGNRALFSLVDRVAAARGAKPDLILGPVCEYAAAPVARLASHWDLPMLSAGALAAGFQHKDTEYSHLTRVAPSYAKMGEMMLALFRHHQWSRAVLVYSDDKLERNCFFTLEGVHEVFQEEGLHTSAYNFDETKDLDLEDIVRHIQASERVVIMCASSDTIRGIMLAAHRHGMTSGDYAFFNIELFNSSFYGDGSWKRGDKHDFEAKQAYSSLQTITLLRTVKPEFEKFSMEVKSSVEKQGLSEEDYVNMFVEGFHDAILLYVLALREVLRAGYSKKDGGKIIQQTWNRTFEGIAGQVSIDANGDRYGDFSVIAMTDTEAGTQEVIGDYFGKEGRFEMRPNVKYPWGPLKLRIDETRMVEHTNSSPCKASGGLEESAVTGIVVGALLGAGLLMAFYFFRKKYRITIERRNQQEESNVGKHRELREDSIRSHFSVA
Assay: competitive displacement receptor binding assay with (¹²⁵I)-rANP(126-150) on cultured cells
Parameters: species or system bovine
Conditions: concentration of unlabeled peptide displacing 50% of maximal binding of 0.5 nM (¹²⁵I)-rANP(126-150); BASM cells; read-out: Ki(app)
Text: Analogous "competitive displacement" receptor binding assays are considered commonplace in the art for examining specific ligand-receptor interactions.
Assuming these ANP analogs act at one or more ANP receptor sites, then increased receptor affinity should reflect increased biological potency.

Compound | Ki
parathyroid hormone | > 500 nM
CC[C@H](C)[C@H](NC(=O)[C@H](Cc1ccc(O)cc1)NC(=O)[C@@H](NC(=O)[C@H](CCCNC(=N)N)NC(=O)[C@@H](N)CC(=O)O)C(C)C)C(=O)N[C@@H](Cc1cnc[nH]1)C(=O)N1CCC[C@H]1C(=O)N[C@@H](Cc1ccccc1)C(=O)O [angiotensin II] | > 500 nM
